Variants at the floor of the assay were thinned out.
Columns and labels:
biotinyl-Phe-oxazolone = experiment: self-aminoacylation, catalytic enhancement (BFO) (fold over background); higher = more active; k-Seq, kA / k0A0; sequences stand for … in GGGAAUGGAUCCACAUCUACGAAUUC…UUCACUGCAGACUUGACGAAGCUG
In short: (§1)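 Working in 50 μL HEPES/NaCl/KCl/MgCl2/CaCl2 buffer with 5% acetonitrile at pH 6.9–7.0, mutagenized RNA pools (0.43 μM; 21-nt variable region) were reacted with 2–1250 μM of each biotinyl-aminoacyl-oxazolone for 90 minutes at room temperature. Streptavidin capture followed, with quantification by triplicate qPCR and Illumina sequencing. Catalytic enhancement is reported as median kA over the uncatalyzed rate, the low-activity peak of a bimodal Gaussian fit to the data.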

biotinyl-Ile-oxazolone = experiment: self-aminoacylation, catalytic enhancement (BIO) (fold over background); higher = more active; k-Seq, kA / k0A0; sequences stand for … in GGGAAUGGAUCCACAUCUACGAAUUC…UUCACUGCAGACUUGACGAAGCUG
In short: as §1

biotinyl-Met-oxazolone = experiment: self-aminoacylation, catalytic enhancement (BMO) (fold over background); higher = more active; k-Seq, kA / k0A0; sequences stand for … in GGGAAUGGAUCCACAUCUACGAAUUC…UUCACUGCAGACUUGACGAAGCUG
In short: as §1

biotinyl-Val-oxazolone = experiment: self-aminoacylation, catalytic enhancement (BVO) (fold over background); higher = more active; k-Seq, kA / k0A0; sequences stand for … in GGGAAUGGAUCCACAUCUACGAAUUC…UUCACUGCAGACUUGACGAAGCUG
In short: as §1

biotinyl-Leu-oxazolone = experiment: self-aminoacylation, catalytic enhancement (BLO) (fold over background); higher = more active; k-Seq, kA / k0A0; sequences stand for … in GGGAAUGGAUCCACAUCUACGAAUUC…UUCACUGCAGACUUGACGAAGCUG
In short: as §1

biotinyl-Trp-oxazolone = experiment: self-aminoacylation, catalytic enhancement (BWO) (fold over background); higher = more active; k-Seq, kA / k0A0; sequences stand for … in GGGAAUGGAUCCACAUCUACGAAUUC…UUCACUGCAGACUUGACGAAGCUG
In short: as §1

| Sequence | self-aminoacylation (biotinyl-Phe-oxazolone) | self-aminoacylation (biotinyl-Ile-oxazolone) | self-aminoacylation (biotinyl-Met-oxazolone) | self-aminoacylation (biotinyl-Val-oxazolone) | self-aminoacylation (biotinyl-Leu-oxazolone) | self-aminoacylation (biotinyl-Trp-oxazolone) |
| --- | --- | --- | --- | --- | --- | --- |
| AUUAACCUGGUCAUCGGGUGA [Fam2.1 aminoacylation ribozyme variant] | 53.1 | 4.26 | 8.87 | 4.72 | 9.83 | 11 |
| AUUAACCUGGUGAUCGAGUGA [Fam2.1 aminoacylation ribozyme variant] | 25.7 | 3.62 | 6.03 | 3.16 | 6.66 | 8.53 |
| AUUAAUCUGGUCAUCGAGUGA [Fam2.1 aminoacylation ribozyme variant] | 15.6 | 3.24 | 4.7 | 2.88 | 5.01 | 6.95 |
| AUUACACAGGUCAUCGAGUGA [Fam2.1 aminoacylation ribozyme variant] | 8.1 | 2.5 | 3.66 | 2.44 | 3.37 | 5.05 |
| AUUACACGGGUCAUCGAGUGA [Fam2.1 aminoacylation ribozyme variant] | 21.7 | 2.64 | 4.62 | 3.1 | 4.33 | 5.36 |
| AUUACACUGGCCAUCGAGUGA [Fam2.1 aminoacylation ribozyme variant] | 15.9 | 3.13 | 6.45 | 3.07 | 6.8 | 5.64 |
| AUUACACUGGUAAUCGAGUGA [Fam2.1 aminoacylation ribozyme variant] | 30.4 | 4.09 | 7.53 | 3.38 | 8.16 | 8.34 |
| AUUACACUGGUCAUCGAGUUA [Fam2.1 aminoacylation ribozyme variant] | 0.876 | 1.18 | 1.05 | 1.02 | 1.09 | 1.38 |
| AUUACACUGGUCAUCGGGUGA [Fam2.1 aminoacylation ribozyme variant] | 59.4 | 5.02 | 9.88 | 5.51 | 9.65 | 9.23 |
| AUUACCAUGGGCAUCGAGUGA [Fam2.1 aminoacylation ribozyme variant] | 30.7 | 3 | 6.01 | 3.13 | 6.48 | 7.88 |
| AUUACCAUGGUCACCGAGUGA [Fam2.1 aminoacylation ribozyme variant] | 49.9 | 3.34 | 8.17 | 3.41 | 9.1 | 8.6 |
| AUUACCAUGGUCAUAGAGUGA [Fam2.1 aminoacylation ribozyme variant] | 37.6 | 4.13 | 8.44 | 3.51 | 8.72 | 10 |
| AUUACCAUGGUCAUCCAGUGA [Fam2.1 aminoacylation ribozyme variant] | 28.2 | 3.62 | 5.96 | 3.46 | 6.27 | 8 |
| AUUACCAUGGUCAUCGAGCGA [Fam2.1 aminoacylation ribozyme variant] | 1.04 | 1.73 | 2.24 | 1.79 | 1.98 | 1.64 |
| AUUACCAUGGUCAUUGAGUGA [Fam2.1 aminoacylation ribozyme variant] | 63.6 | 5.76 | 11.8 | 5.51 | 12.1 | 13.8 |
| AUUACCAUGGUCGUCGAGUGA [Fam2.1 aminoacylation ribozyme variant] | 0.902 | 1.21 | 1.3 | 1.08 | 1.25 | 1.48 |
| AUUACCAUUGUCAUCGAGUGA [Fam2.1 aminoacylation ribozyme variant] | 40.4 | 4.32 | 7.41 | 4.25 | 8.46 | 10.4 |
| AUUACCCAGGUCAGCGAGUGA [Fam2.1 aminoacylation ribozyme variant] | 34.2 | 3.4 | 5.2 | 3.31 | 5.59 | 6.47 |
| AUUACCCAGGUCAUCCAGUGA [Fam2.1 aminoacylation ribozyme variant] | 24.2 | 3.13 | 5.32 | 3.14 | 5.76 | 6.41 |
| AUUACCCAGGUCAUCGAGGGA [Fam2.1 aminoacylation ribozyme variant] | 1.52 | 1.36 | 1.38 | 1.37 | 1.48 | 1.16 |
| AUUACCCAGGUCAUCGAGUGC [Fam2.1 aminoacylation ribozyme variant] | 0.417 | 0.777 | 0.643 | 0.958 | 0.919 | 0.852 |
| AUUACCCAGGUCAUCGAGUGU [Fam2.1 aminoacylation ribozyme variant] | 2.45 | 1.65 | 2.74 | 2.06 | 2.71 | 3.39 |
| AUUACCCAGGUCAUUGAGUGA [Fam2.1 aminoacylation ribozyme variant] | 53.1 | 4.59 | 8.2 | 4.36 | 9.04 | 10.4 |
| AUUACCCAGGUCCUCGAGUGA [Fam2.1 aminoacylation ribozyme variant] | 10.3 | 2.2 | 2.79 | 2.15 | 3.11 | 3.69 |
| AUUACCCAGGUCGUCGAGUGA [Fam2.1 aminoacylation ribozyme variant] | 0.686 | 0.849 | 0.786 | 0.951 | 0.669 | 0.416 |
| AUUACCCCGGUCAGCGAGUGA [Fam2.1 aminoacylation ribozyme variant] | 31.4 | 3.32 | 4.82 | 3.28 | 4.92 | 5.45 |

| Sequence | self-aminoacylation (biotinyl-Phe-oxazolone) | self-aminoacylation (biotinyl-Ile-oxazolone) | self-aminoacylation (biotinyl-Met-oxazolone) | self-aminoacylation (biotinyl-Val-oxazolone) | self-aminoacylation (biotinyl-Leu-oxazolone) | self-aminoacylation (biotinyl-Trp-oxazolone) |
| --- | --- | --- | --- | --- | --- | --- |
| AUUACCCCGGUCAUCGAGAGA [Fam2.1 aminoacylation ribozyme variant] | 1.03 | 0.935 | 0.8 | 0.651 | 0.708 | 1.07 |
| AUUACCCCGGUCAUCGAGGGA [Fam2.1 aminoacylation ribozyme variant] | 2.68 | 1.15 | 1.21 | 1.93 | 1.07 | 1.67 |
| AUUACCCCGGUCAUCGAGUGU [Fam2.1 aminoacylation ribozyme variant] | 9.98 | 1.56 | 2.58 | 1.87 | 2.45 | 3.57 |
| AUUACCCCGGUCAUCGCGUGA [Fam2.1 aminoacylation ribozyme variant] | 174 | 11.2 | 23.7 | 11.8 | 24.3 | 23.8 |
| AUUACCCCGGUCCUCGAGUGA [Fam2.1 aminoacylation ribozyme variant] | 25.5 | 2.29 | 3.32 | 2.21 | 3.97 | 4.82 |
| AUUACCCCGGUCGUCGAGUGA [Fam2.1 aminoacylation ribozyme variant] | 2.06 | 0.914 | 1.39 | 1 | 1.41 | 0.938 |
| AUUACCCGCGUCAUCGAGUGA [Fam2.1 aminoacylation ribozyme variant] | 24.9 | 2.37 | 4.55 | 2.8 | 4.6 | 5.55 |
| AUUACCCGGGGCAUCGAGUGA [Fam2.1 aminoacylation ribozyme variant] | 62.9 | 5.21 | 8.31 | 4.54 | 10.2 | 11.5 |
| AUUACCCGGGUCACCGAGUGA [Fam2.1 aminoacylation ribozyme variant] | 145 | 6.79 | 19.3 | 8.28 | 21.4 | 19.5 |
| AUUACCCGGGUCAUCGAAUGA [Fam2.1 aminoacylation ribozyme variant] | 0.592 | 1 | 0.972 | 1.29 | 1.25 | 0.515 |
| AUUACCCGGGUCAUCGAGUCA [Fam2.1 aminoacylation ribozyme variant] | 1.05 | 1.29 | 1.32 | 1.16 | 1.22 | 0.967 |
| AUUACCCUACUCAUCGAGUGA [Fam2.1 aminoacylation ribozyme variant] | 35.1 | 3.24 | 7.19 | 3.19 | 6.54 | 9 |
| AUUACCCUAGGUCAUCGGGUG [Fam2.2 aminoacylation ribozyme variant] | 51.7 | 5.23 | 8.02 | 5.13 | 11.9 | 8.1 |
| AUUACCCUAGUAAUCGAGUGA [Fam2.1 aminoacylation ribozyme variant] | 46.5 | 3.08 | 6.75 | 3.18 | 7.45 | 9.47 |
| AUUACCCUAGUCAACGAGUGA [Fam2.1 aminoacylation ribozyme variant] | 25.6 | 3.09 | 5.11 | 3.26 | 5.35 | 6.9 |
| AUUACCCUAGUCAUAGAGUGA [Fam2.1 aminoacylation ribozyme variant] | 32.7 | 4.22 | 7.98 | 3.95 | 7.72 | 9.37 |
| AUUACCCUAGUCAUCCAGUGA [Fam2.1 aminoacylation ribozyme variant] | 3.4 | 1.91 | 2.29 | 1.94 | 2.86 | 3.28 |
| AUUACCCUAGUCAUCGAGUAA [Fam2.1 aminoacylation ribozyme variant] | 0.698 | 1.28 | 1.36 | 1.24 | 1.19 | 0.823 |
| AUUACCCUAGUCAUCGAGUGU [Fam2.1 aminoacylation ribozyme variant] | 6.11 | 1.95 | 2.47 | 1.95 | 2.55 | 2.62 |
| AUUACCCUAGUCAUCGGGUGA [Fam2.1 aminoacylation ribozyme variant] | 49.2 | 4.76 | 7.55 | 4.8 | 8.62 | 9.08 |
| AUUACCCUAGUCAUGGAGUGA [Fam2.1 aminoacylation ribozyme variant] | 15.5 | 2.79 | 4.31 | 2.68 | 4.06 | 5.17 |
| AUUACCCUCGUAAUCGAGUGA [Fam2.1 aminoacylation ribozyme variant] | 120 | 6.62 | 16 | 7.73 | 17.2 | 21.7 |
| AUUACCCUCGUCACCGAGUGA [Fam2.1 aminoacylation ribozyme variant] | 21.2 | 2.33 | 4.34 | 2.74 | 4.63 | 5.5 |
| AUUACCCUCGUCAUCGACUGA [Fam2.1 aminoacylation ribozyme variant] | 0.811 | 0.735 | 0.868 | 0.877 | 0.644 | 0.555 |
| AUUACCCUCGUCCUCGAGUGA [Fam2.1 aminoacylation ribozyme variant] | 34.7 | 2.48 | 4.67 | 2.4 | 5.49 | 6.18 |
